Results reported in paper doi:10.1101/2022.12.12.520143.

Target: GDP-L-galactose phosphorylase 1 (GGP1) with His6, expressed in E. coli (Solanum lycopersicum (tomato))

- inhibition of GGP activity by PLP incubated 2 h in darkness before mixing: 86%
Substance: PAS/LOV protein (PLP) with His6, expressed in tobacco (natural protein)
